From US20130315910A1 come the findings set out here.

Test in all cases: SPR
A general note: Surface plasmon resonance follows binding to a sensor surface in real time, without labels.

The target of assay [1] is cynoFcγRIIb (Macaca fascicularis).
The next assay addresses mFcγRIIb (Mus musculus) (UniProt P08101).
In the next assay the target is T1, mFcγRIV.
T1 sequence: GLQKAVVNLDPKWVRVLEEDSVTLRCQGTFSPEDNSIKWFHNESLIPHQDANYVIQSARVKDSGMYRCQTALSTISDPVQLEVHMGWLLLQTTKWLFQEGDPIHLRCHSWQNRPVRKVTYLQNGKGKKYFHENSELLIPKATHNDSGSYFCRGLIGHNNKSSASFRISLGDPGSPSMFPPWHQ

The target of assay [2] is human FcγRIIb receptor protein (R&D Systems) (human) (UniProt P31994).
human FcγRIIb receptor protein (R&D Systems) (human), sequence (P31994 46-217 limits assumed): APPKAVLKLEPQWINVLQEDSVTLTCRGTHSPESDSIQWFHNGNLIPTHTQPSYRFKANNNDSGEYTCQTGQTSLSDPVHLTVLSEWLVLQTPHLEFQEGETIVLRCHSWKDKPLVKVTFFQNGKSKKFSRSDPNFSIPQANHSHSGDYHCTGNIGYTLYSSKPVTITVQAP
The target in assay [3] is human FcγRI receptor protein (R&D Systems) (human) (UniProt P12314).
human FcγRI receptor protein (R&D Systems) (human), sequence (P12314 16-288 limits assumed): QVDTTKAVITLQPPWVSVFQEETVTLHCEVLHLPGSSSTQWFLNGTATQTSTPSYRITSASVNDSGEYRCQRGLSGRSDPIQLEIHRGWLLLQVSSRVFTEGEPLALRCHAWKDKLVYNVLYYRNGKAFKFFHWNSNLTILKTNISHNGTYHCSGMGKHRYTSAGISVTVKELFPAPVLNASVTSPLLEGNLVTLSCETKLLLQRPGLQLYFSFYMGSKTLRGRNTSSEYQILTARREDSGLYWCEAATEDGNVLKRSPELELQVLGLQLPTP
Assay [4] addresses human FcγRIIa (131R), His- and GST-tagged (human) (UniProt P12318).
In assay [5] the target is human FcγRIIa (131H), His- and GST-tagged (human) (UniProt P12318).
human FcγRIIa (131H), His- and GST-tagged (human), sequence (P12318 34-217): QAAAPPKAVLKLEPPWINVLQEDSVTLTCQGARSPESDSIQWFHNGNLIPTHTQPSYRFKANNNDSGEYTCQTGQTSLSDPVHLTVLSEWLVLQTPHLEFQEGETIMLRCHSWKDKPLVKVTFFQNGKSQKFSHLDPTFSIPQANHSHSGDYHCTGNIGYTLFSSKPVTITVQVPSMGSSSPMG

human FcγRIIa (131R), His- and GST-tagged (human), sequence (P12318 34-217 H167R): as the sequence (P12318 34-217) above, with H134R counted along it
mFcγRIIb (Mus musculus), sequence (P08101 30-210): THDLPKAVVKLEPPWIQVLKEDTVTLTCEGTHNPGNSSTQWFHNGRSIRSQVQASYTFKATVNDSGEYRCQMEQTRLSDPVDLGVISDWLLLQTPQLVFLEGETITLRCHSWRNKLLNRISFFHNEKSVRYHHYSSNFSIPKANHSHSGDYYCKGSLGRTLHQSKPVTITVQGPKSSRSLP

With S267D/A327D (antibody), the Fold vs WT IgG1 (off-rate) (in assay [1]; with mFcγRIIb (Mus musculus)) was 0 fold throughout.
As to S267E/L328Y (antibody), the Fold vs WT IgG1 (Kd) with mFcγRIV is 0.026 fold.
V266M (antibody) registered a Fold vs WT IgG1 (off-rate) with mFcγRIV of 1.23 fold.
“anti-CD19 antibody IgG1/2 ELLGG S267E/L328F”: the Fold vs WT IgG1 in assay [2] amounted to 221 fold; in assay [3], 2.35 fold; in assay [4], 269 fold; in assay [5] it was 0.993 fold. Further, the Kd (usually the constant that tells how readily two partners part at equilibrium) was 6.63 nM in assay [2], 0.14 nM in assay [3], 3.19 nM in assay [4] and 651 nM in assay [5].
